Measured values published in patent publication US20100015126A1, “Methods of Binding of Cross-Beta Structures By Chaperones” (priority 2006, published 2010).

What was measured:
Test in all cases: cell-based or functional assay
[1] = target: synthetic human Aβ25-35 (6BB6) (human)
[2] = target: synthetic human Aβ16-22 (6BB12) (human)
synthetic peptide 6BB10 = target: synthetic peptide 6BB10
synthetic peptide 6BB13 = target: synthetic peptide 6BB13
synthetic peptide 6BB9 = target: synthetic peptide 6BB9
synthetic peptide 6BB11 = target: synthetic peptide 6BB11

Chain of recombinant human BiP with C-terminal linker, FLAG-tag and His-tag (BiP-FLAG-His), P11021 19-654 (P11021 other isoform, or with tags, fused parts or gaps): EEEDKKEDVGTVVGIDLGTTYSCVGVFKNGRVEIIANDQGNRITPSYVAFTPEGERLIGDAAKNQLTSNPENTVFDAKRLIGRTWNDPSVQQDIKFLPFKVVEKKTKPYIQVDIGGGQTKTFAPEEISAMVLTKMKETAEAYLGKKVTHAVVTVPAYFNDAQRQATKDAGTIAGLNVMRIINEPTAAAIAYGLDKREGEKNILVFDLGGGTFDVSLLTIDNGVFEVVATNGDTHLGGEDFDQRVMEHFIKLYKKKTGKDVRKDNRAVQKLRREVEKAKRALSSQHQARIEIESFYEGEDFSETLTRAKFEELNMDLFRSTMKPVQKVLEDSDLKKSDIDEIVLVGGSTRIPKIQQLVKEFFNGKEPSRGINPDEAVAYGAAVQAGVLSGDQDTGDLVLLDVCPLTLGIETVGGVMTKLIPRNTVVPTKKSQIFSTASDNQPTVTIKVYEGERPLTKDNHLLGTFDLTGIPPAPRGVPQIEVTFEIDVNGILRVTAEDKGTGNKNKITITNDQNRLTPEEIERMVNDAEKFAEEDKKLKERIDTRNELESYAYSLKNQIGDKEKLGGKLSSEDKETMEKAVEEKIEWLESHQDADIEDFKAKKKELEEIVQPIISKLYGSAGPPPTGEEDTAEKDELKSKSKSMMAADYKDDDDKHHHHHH

recombinant human BiP with C-terminal linker, FLAG-tag and His-tag (BiP-FLAG-His), P11021 19-654
Binding to DCs (MFI ratio), BiP, Aβ16-22/Aβ25-35 + BiP [1]: 261 MFI ratio | Binding to DCs (MFI ratio), BiP, Aβ16-22/Aβ25-35 + BiP [2]: 261 MFI ratio | Binding to DCs (MFI ratio), BiP, mix of HSP70/BiP-binding peptides + BiP (synthetic peptide 6BB10): 1.8 MFI ratio | Binding to DCs (MFI ratio), BiP, mix of HSP70/BiP-binding peptides + BiP (synthetic peptide 6BB13): 1.8 MFI ratio | Binding to DCs (MFI ratio), BiP, mix of HSP70/BiP-binding peptides + BiP (synthetic peptide 6BB9): 1.8 MFI ratio | Binding to DCs (MFI ratio), BiP, mix of HSP70/BiP-binding peptides + BiP (synthetic peptide 6BB11): 1.8 MFI ratio
